Target: the molecule itself
Assay: AUC

MAGNGGDAALALLLLDRLNQLESKMSGKGQQQQGQTV [isolated LRS peptide (N:210–246)]: binds.

From publication doi:10.1101/2023.11.22.568361 (bioRxiv, 2023)
